Fewer inactive variants are shown than the library holds.
B1: TPR 5TU (parent)
chain: GGAUCUUCUCGAUCUAACAAAAAAGACAAAUCUGCCACAAAGCUUGAGAGCAUCUUCGGAUGCAGAGGCGGCAGCCUUCGGUGGCGCGAUAGCGCCAACGUUCUCAACUAUGACACGCAAAACGCGUGCUCCGUUGAAUGGAGUUUAUCAUG

Variants of: B1
Assay: polymerase ribozyme fitness, log enrichment relative to wild type (log ratio); higher = more active; in vitro selection for triplet polymerase activity
In short: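 Each subunit of a heterodimeric triplet polymerase ribozyme was mutagenized into a library by PCR, transcribed, and subjected to one round of in vitro selection, run in triplicate. Libraries were annealed with a biotinylated primer, the partner subunit and triplets, incubated frozen at −7 °C, and extended constructs were gel-excised, captured on streptavidin beads and recovered by RT-PCR. Input and output libraries were sequenced on Illumina, keeping genotypes with ≥10 input reads and ≥1 read per output. Fitness is log base 2 of genotype enrichment divided by wild-type enrichment, from inverse-variance-weighted replicate averages.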

| Variant | polymerase ribozyme fitness (log ratio) |
| --- | --- |
| A24C G48A G84U A106U A142U | ≤ -4.2 |
| U53A G141A | -1.9 |
| C38G U55G C76A G141A | ≤ -4.2 |
| A40U C87G G133U | ≤ -4.2 |
| A47G U53A C75G U90C | ≤ -4.2 |
| C14U C123G | -1.9 |
| U15A C87A A107U C108A | ≤ -4.2 |
| A40U C57U G68C A107G C108U U139A | ≤ -4.2 |
| G84A U101G A122U U146C | -0.376 |
| G94A C118A | -0.879 |
| C76U C105U C116G | -1.03 |
| U31G U33A A89G U144C U146A | -4.01 |
| C38A A41C U61A G94A C131A G141A U144G U151A | ≤ -4.2 |
| U31A C69A G92U A115U | -3.26 |
| A29C C79G C96U U104C | ≤ -4.2 |
| U82A G83A A98G U127C | -3.36 |
| A73G U144C | 0.137 |
| C5G A21U C27U G46A G94C C105G G126A | ≤ -4.2 |
| A26U U53A C76A G124U U145C | ≤ -4.2 |
| A12U A41C | -0.744 |
| C63U U134A | -2.6 |

| Variant | polymerase ribozyme fitness (log ratio) |
| --- | --- |
| A52G G65A G68U G92U C103U A119U U139C | ≤ -4.2 |
| C85G C123U G141A | -0.441 |
| C38U A89C C93U G124C | -2.94 |
| C36U G50C U53A G59C U78A | ≤ -4.2 |
| A22C A37U G48C C87U G124A U134C | -4.18 |
| C5A C85U C95G | -1.93 |
| C51U C85A G143C | -2.7 |
| C36U C57A | -0.483 |
| A119G A120U | 0.0433 |
| A64G G68A C85A | ≤ -4.2 |
| A30C G74C C75A C76U G84U C87A C116G | ≤ -4.2 |
| G42A G83C C96G C105U A110G U139C | ≤ -4.2 |
| A12U G59C A89U A91U U101C U144C | ≤ -4.2 |
| A37C C87A | ≤ -4.2 |
| C14U A41U G46A A52U C63G C93U C105G | ≤ -4.2 |
| C38U A91U | ≤ -4.2 |
| A115G C129G | -3.64 |
| A19G A91C | -4.15 |
| G80C C85U | -3.96 |
| G48U U78A A91U U102G U144C | ≤ -4.2 |
| A29G U53A | -3.63 |

| Variant | polymerase ribozyme fitness (log ratio) |
| --- | --- |
| C75U C87U | 0.0996 |
| A17U A22U C35U C51U G83U | -1.87 |
| A30U C95A | -3.34 |
| G25U A49U C93U A119C | -3.95 |
| U9C A21C C57A C93A A115C | -4 |
| C8G | -2.95 |
| G133A A142G | ≤ -4.2 |
| A12C U56A G59C C96A U101C | -0.609 |
| C8G A21C U77A G92A C118A G136U | ≤ -4.2 |
| A20G C54A G68A C87U | ≤ -4.2 |
| C10G A64C G70A A97U U144G A150U | ≤ -4.2 |
| A12C U53A C87U | -2 |
| A16G C35A C87G U109C G126C C149G | ≤ -4.2 |
| G62U G68C A98G G124C G141A | ≤ -4.2 |
| U15A A22C C72A C87G G88U G133C | ≤ -4.2 |
| U13C A52G G84A | -1.1 |
| A20G G71A C96A | ≤ -4.2 |
| A17U A41C G83C A97U U127A A138U A150C | ≤ -4.2 |
| A23G C76U C85A | ≤ -4.2 |
| C96U A150U | -0.525 |
| G83C C85U C87U | -2.71 |

| Variant | polymerase ribozyme fitness (log ratio) |
| --- | --- |
| G46C A91G | -3.27 |
| C85A C105U A150G | -2.08 |
| C93A G133C | -4.09 |
| C72U C75U C87A U90A C95G U102G A150G | ≤ -4.2 |
| G84U C116U | -2.7 |
| U45A G74A C105U | ≤ -4.2 |
| A49C A52G G81A C87U U102C C114G A150G | ≤ -4.2 |
| A26U C54G C87G A106G U130G | ≤ -4.2 |
| A52U A150C | -4.03 |
| A23C G42C U77A G80C U101G | ≤ -4.2 |
| U44A C85G U109G U146C | ≤ -4.2 |
| U31G A40G C54A C93A C103A U109A U134A G136U | ≤ -4.2 |
| U78G G86C U102G C108U A119U G140U | ≤ -4.2 |
| C72A C93A | ≤ -4.2 |
| A40U C57A A73U C95U U135G C149G | ≤ -4.2 |
| C18A A20U A47G A52C G65A G83U U101C G136U | ≤ -4.2 |
| C54A C123U | -0.754 |
| G84U C116G | -1.58 |
| G84A G94A C125A | -1.7 |
| U6A C118G | -1.66 |
